This is an account of results in FireProtDB.

The conditions of this data set: Escherichia coli (strain K12), whole UniProt chain shown.
Where [1] appears, read: pH 7.4, Thermal, DSC, phosphate 5 mM, reversible: yes.
The mark [2] stands for this setting: pH 7, 25 °C, Thermal, DSC, Potassium phosphate 25 mM, KCl 100 mM, reversible: yes.
The mark [3] stands for this setting: pH 7, Thermal, DSC, Potassium phosphate 25 mM, KCl 100 mM, reversible: yes.
Where [4] appears, read: pH 3, Thermal, CD, glycine-HCl 10 mM, NaCl 0.1 M, reversible: yes.
[5] abbreviates: pH 3, Thermal, CD, glycine-HCl 10 mM, reversible: yes.
Where [6] appears, read: pH 5.5, Thermal, CD, Sodium acetate 5 mM, KCl 50 mM, reversible: no.
[7] abbreviates: pH 5.5, Thermal, CD, Sodium acetate 20 mM, reversible: yes.
Where [8] appears, read: pH 8, 25 °C, GdnHCl, CD, Potassium phosphate 20 mM, KCl 50 mM, reversible: yes.
Setting [9] is: pH 8, 25 °C, GdnHCl, CD, Potassium phosphate 50 mM, KCl 50 mM, reversible: yes.
Where [10] appears, read: pH 8, 25 °C, Urea, CD, Potassium phosphate 20 mM, KCl 50 mM, reversible: yes.

B1: Peptidyl-prolyl cis-trans isomerase B wild type, P23869 (protein)
chain: MVTFHTNHGDIVIKTFDDKAPETVKNFLDYCREGFYNNTIFHRVINGFMIQGGGFEPGMKQKATKEPIKNEANNGLKNTRGTLAMARTQAPHSATAQFFINVVDNDFLNFSGESLQGWGYCVFAEVVDGMDVVDKIKGVATGRSGMHQDVPKEDVIIESVTVSE
For B1, the unfolding free energy (pH 8, 15 °C, NaCl, Fluorescence, Tris-HCl 0.1 M, NaCl 2.0 M, reversible: yes) amounted to 2.51 kcal/mol.

B2: L-arabinose-binding periplasmic protein wild type, P02924 (protein)
chain: MHKFTKALAAIGLAAVMSQSAMAENLKLGFLVKQPEEPWFQTEWKFADKAGKDLGFEVIKIAVPDGEKTLNAIDSLAASGAKGFVICTPDPKLGSAIVAKARGYDMKVIAVDDQFVNAKGKPMDTVPLVMMAATKIGERQGQELYKEMQKRGWDVKESAVMAITANELDTARRRTTGSMDALKAAGFPEKQIYQVPTKSNDIPGAFDAANSMLVQHPEVKHWLIVGMNDSTVLGGVRATEGQGFKAADIIGIGINGVDAVSELSKAQATGFYGSLLPSPDVHGYKSSEMLYNWVAKDVEPPKFTEVTDVVLITRDNFKEELEKKGLGGK
One may read the Tm as the temperature at the midpoint of the melting transition. As for B2, under setting [1], the Tm was 53.6 °C, the “heat capacity change of unfolding” value was 3.16 kcal/mol/K and the “unfolding enthalpy (calorimetric)” value stood at 152 kcal/mol.

B3: Met repressor wild type, P0A8U6 (protein)
chain: MAEWSGEYISPYAEHGKKSEQVKKITVSIPLKVLKILTDERTRRQVNNLRHATNSELLCEAFLHAFTGQPLPDDADLRKERSDEIPEAAKEIMREMGINPETWEY
Take B3: under setting [2], the “heat capacity change of unfolding” value was found to be 2.13 kcal/mol/K and the unfolding free energy turned out to be 7.77 kcal/mol. For the same protein, under setting [3], the midpoint of thermal melting (Tm) is 53.2 °C, the “heat capacity change of unfolding” value stood at 2.13 kcal/mol/K, the “unfolding enthalpy (calorimetric)” value is 121 kcal/mol and the “unfolding enthalpy (van 't Hoff)” value is 131 kcal/mol.

B4: Lactose operon repressor wild type, P03023 (protein)
chain: MKPVTLYDVAEYAGVSYQTVSRVVNQASHVSAKTREKVEAAMAELNYIPNRVAQQLAGKQSLLIGVATSSLALHAPSQIVAAIKSRADQLGASVVVSMVERSGVEACKAAVHNLLAQRVSGLIINYPLDDQDAIAVEAACTNVPALFLDVSDQTPINSIIFSHEDGTRLGVEHLVALGHQQIALLAGPLSSVSARLRLAGWHKYLTRNQIQPIAEREGDWSAMSGFQQTMQMLNEGIVPTAMLVANDQMALGAMRAITESGLRVGADISVVGYDDTEDSSCYIPPLTTIKQDFRLLGQTSVDRLLQLSQGQAVKGNQLLPVSLVKRKTTLAPNTQTASPRALADSLMQLARQVSRLESGQ
For the protein B4, the Tm (pH 7.4, Thermal, CD, phosphate 5 mM, reversible: no) came to 53 °C.

B5: Ribonuclease HI wild type, P0A7Y4 (protein)
chain: MLKQVEIFTDGSCLGNPGPGGYGAILRYRGREKTFSAGYTRTTNNRMELMAAIVALEALKEHCEVILSTDSQYVRQGITQWIHNWKKRGWKTADKKPVKNVDLWQRLDAALGQHQIKWEWVKGHAGHPENERCDELARAAAMNPTLEDTGYQVEV
As to B5, the midpoint of thermal melting (Tm) by setting is: (pH 3, Thermal, CD, Gly-HCl buffer 10 mM, NaCl 0.1 M, reversible: yes) 49.8 °C; under setting [4], 50.1 °C; under setting [5], 49.8 °C; under setting [6], 66 °C; under setting [7], 52 °C; (pH 5.5, Thermal, CD, sodium acetate 20 mM, NaCl 0.1 M, reversible: yes) 52 °C. Also, for the setting “pH 8, Thermal, CD, Potassium phosphate 20 mM, KCl 50 mM, reversible: yes”, the Tm is 55 °C. Besides, the “unfolding enthalpy (van 't Hoff)” value amounted to 113 kcal/mol under setting [4], 98.1 kcal/mol under setting [5], 120 kcal/mol under setting [6] and 89 kcal/mol under setting [7]. For the same protein, the “heat capacity change of unfolding” value under setting [6] amounted to 2.7 kcal/mol/K. Besides, the “denaturant midpoint (higher = more stable)” value is 1.6 M under setting [8], 1.18 M under setting [9] and 3.84 M under setting [10]. Also, the unfolding free energy under setting [8] was 7.2 kcal/mol, the unfolding free energy under setting [9] is 3.95 kcal/mol and the unfolding free energy under setting [10] amounted to 7.4 kcal/mol.
